# Test results from patent publication US20230357386A1 (EISAI R AND D MANAGEMENT, published 2023).
# Substitutions are numbered along the chain they refer to.
# B1: antibody A (human anti-EphA4 monoclonal antibody) (antibody, V domains shown)
# VH: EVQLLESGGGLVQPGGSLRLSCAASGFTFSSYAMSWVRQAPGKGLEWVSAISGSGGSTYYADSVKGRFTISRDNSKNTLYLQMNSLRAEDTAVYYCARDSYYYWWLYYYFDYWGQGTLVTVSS
# VL: SSELTQDPAVSVALGQTVRITCQGDSLRSYYASWYQQKPGQAPVLVIYGKNNRPSGIPDRFSGSSSGNTASLTITGAQAEDEADYYCQSSYSSSYSYVFGGGTKLTVLG
# notes: Human IgG2 / lambda, from a phage library scFv converted to IgG; made in Expi293F or CHOK1SV cells
# B2: antibody B (human anti-EphA4 monoclonal antibody) (antibody, human IgG1, lambda, V domains shown)
# VH: EVQLLESGGGLVQPGGSLRLSCAASGFTFSSFAMSWVRQAPGKGLEWVSAISGSGGSTYYADSVKGRFTISRDNSKNTLYLQMNSLRAEDTAVYYCARDDYYPYWWYYYYFDYWGQGTLVTVSS
# VL: B1 VL with Y31F
# notes: Human IgG1/2 (IgG1 CH1 and hinge, IgG2 CH2 and CH3) / lambda; made in Expi293F or CHOK1SV cells
# Assays:
# [1] = biological target: T1, monkey EphA4 extracellular domain-SEAP-His protein (monkey); experiment: ELISA: monkey EphA4 extracellular domain-SEAP-His captured by anti-6-His antibody, detection with HRP anti-human IgG Fc
# T1 construct: not shown: SEAP and histidine tag
# T1 sequence (chain, as listed by the source): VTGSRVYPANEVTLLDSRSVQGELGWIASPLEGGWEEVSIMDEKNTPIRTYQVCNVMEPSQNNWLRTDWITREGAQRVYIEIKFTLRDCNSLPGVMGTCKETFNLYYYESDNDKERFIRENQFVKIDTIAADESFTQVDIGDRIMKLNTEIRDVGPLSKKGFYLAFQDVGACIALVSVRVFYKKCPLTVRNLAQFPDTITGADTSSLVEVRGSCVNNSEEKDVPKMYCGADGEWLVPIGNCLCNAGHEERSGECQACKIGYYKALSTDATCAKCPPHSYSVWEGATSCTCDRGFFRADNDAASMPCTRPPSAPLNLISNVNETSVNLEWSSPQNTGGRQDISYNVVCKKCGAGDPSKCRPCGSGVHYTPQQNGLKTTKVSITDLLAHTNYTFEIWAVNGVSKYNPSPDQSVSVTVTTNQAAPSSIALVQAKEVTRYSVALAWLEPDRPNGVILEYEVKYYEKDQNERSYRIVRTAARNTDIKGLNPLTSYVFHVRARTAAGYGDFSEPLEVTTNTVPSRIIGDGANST
# Protocol: (§1) The antibody A and the antibody B were evaluated for their binding activity against each EphA4 according to the following steps. Each well of a 96-well plate (Nunc) was coated with a rabbit anti-6-His antibody (Bethyl Laboratories, Inc.). After incubation at room temperature for 1 hour, each well was blocked with 1% BlockAce (KAC Co., Ltd.) overnight at 4° C. After washing with 0.02% Tween 20/PBS three times, each of the mouse, rat, monkey and human EphA4 extracellular domain-SEAP-His proteins (final concentration: 1 nM) was seeded in each well and incubated at room temperature for 1 hour. After washing three times, the antibody A or the antibody B (0, 0.00013, 0.00064, 0.0032, 0.016, 0.08, 0.4, 2, and 10 µg/mL) was added to each well and incubated at room temperature for 1 hour. After washing three times, a horseradish peroxidase-labeled rabbit anti-human IgG Fcy fragment antibody (Jackson ImmunoResearch Laboratories, Inc.) was added thereto and incubated at room temperature for 1 hour. After washing three times, a TMBZ (3,3′,5,5′-tetramethylbenzidine, Kirkegaard & Perry Laboratories, Inc.) solution was added to each well. An equal amount of a reaction stopping solution (2 N H₂SO₄, FUJIFILM Wako Pure Chemical Corp.) was added to each well. The absorbance at 450 nm was read using a microplate reader (Thermo Fisher Scientific Inc.).
# [2] = biological target: T2, mouse EphA4 extracellular domain-SEAP-His protein (mouse, UniProt Q03137 20-547); experiment: ELISA: mouse EphA4 extracellular domain-SEAP-His captured by anti-6-His antibody, detection with HRP anti-human IgG Fc
# T2 construct: not shown: SEAP and histidine tag
# Protocol: as §1
# [3] = biological target: T3, human EphA4 extracellular domain-SEAP-His protein (human); experiment: competition ELISA, captured human EphA4 ECD-SEAP-His; competitor biotinylated human Ephrin A5-Fc (0.7 nM)
# T3 construct: also called Human EphA4 extracellular domain-SEAP-His10
# T3 sequence (chain, as listed by the source limits assumed): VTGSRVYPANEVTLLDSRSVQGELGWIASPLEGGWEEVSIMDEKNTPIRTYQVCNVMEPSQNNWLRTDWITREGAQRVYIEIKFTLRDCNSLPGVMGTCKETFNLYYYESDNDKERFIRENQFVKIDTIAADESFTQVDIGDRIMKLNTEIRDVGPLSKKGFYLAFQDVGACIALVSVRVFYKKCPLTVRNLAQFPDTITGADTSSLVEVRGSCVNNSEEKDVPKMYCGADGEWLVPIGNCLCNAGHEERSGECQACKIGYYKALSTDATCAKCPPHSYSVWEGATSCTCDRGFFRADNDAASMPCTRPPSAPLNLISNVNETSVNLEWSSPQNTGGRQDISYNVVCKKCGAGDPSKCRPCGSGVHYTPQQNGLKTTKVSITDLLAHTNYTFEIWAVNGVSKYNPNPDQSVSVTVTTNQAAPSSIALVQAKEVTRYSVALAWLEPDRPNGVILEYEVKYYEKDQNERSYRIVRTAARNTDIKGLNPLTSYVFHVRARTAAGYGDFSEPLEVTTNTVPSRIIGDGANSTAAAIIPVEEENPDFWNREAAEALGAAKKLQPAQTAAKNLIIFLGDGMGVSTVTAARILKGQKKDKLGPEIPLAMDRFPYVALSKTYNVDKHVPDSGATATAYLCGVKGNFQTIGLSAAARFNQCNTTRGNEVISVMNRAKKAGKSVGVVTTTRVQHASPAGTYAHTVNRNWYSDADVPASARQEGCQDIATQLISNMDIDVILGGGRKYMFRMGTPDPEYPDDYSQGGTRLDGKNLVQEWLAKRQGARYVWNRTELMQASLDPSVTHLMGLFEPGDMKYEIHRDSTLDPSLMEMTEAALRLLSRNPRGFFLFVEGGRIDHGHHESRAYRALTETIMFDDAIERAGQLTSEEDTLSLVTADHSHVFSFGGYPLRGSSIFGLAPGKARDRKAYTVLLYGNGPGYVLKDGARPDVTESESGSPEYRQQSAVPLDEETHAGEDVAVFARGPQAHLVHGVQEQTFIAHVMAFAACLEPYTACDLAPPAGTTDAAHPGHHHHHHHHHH
# Protocol: (§2) The antibody A and the antibody B were evaluated for their inhibitory activity against the binding between human EphA4 and its human ligand according to the following steps. Each well of a 96-well plate (Nunc) was coated with an anti-alkaline phosphatase antibody (Thermo Fisher Scientific Inc.). After incubation overnight at 4° C., each well was blocked with 1% BlockAce (KAC Co., Ltd.) overnight at 4° C. After washing with 0.02% Tween 20/PBS three times, the human EphA4 extracellular domain-SEAP-His protein (final concentration: 10 nM) was seeded in each well and incubated at room temperature for 1 hour. After washing three times, ligands and serially diluted antibody A or antibody B (0, 0.003, 0.01, 0.03, 0.1, 0.3, 1, 3, 10, 30, 100, 300, 1000, and 3000 nM) were added to each well. The ligands used were biotinylated human Ephrin A5-Fc chimera (R&D Systems, Inc., final concentration: 0.7 nM) and biotinylated human Ephrin B3-Fc chimera (R&D Systems, Inc., final concentration: 2.3 nM). After incubation at room temperature for 1 hour and subsequent washing three times, a horseradish peroxidase-labeled streptavidin (GE Healthcare Japan Corp.) was added thereto and incubated at room temperature for 1 hour. […] The absorbance at 450 nm was read using a microplate reader (Thermo Fisher Scientific Inc.).
# [4] = biological target: human EphA4 fibronectin type III domain 2-MBP-His protein (human, UniProt P54764 436-547; P0AEX9 29-392 = MBP); experiment: ELISA, domain-MBP-His captured by anti-6-His antibody
# Protocol: (§3) The antibody A, the antibody B, and human IgG (Sigma-Aldrich Co. LLC) were evaluated for their binding activity against each EphA4 according to the following steps. Each well of a 96-well plate (Nunc) was coated with a rabbit anti-6-His antibody (Bethyl Laboratories, Inc.). After incubation at room temperature for 1 hour, each well was blocked with 1% BlockAce (KAC Co., Ltd.) overnight at 4° C. After washing with 0.02% Tween 20/PBS three times, each of the human EphA4 extracellular domain-, human EphA4 ligand-binding domain-, human EphA4 fibronectin type III domain 1-, and human EphA4 fibronectin type III domain 2-MBP-His proteins or the MBP-His protein (final concentration: 1 nM) was seeded in each well and incubated at room temperature for 1 hour. After washing three times, the antibody A, the antibody B, or human IgG (10 nM) was added to each well and incubated at room temperature for 1 hour. After washing three times, a horseradish peroxidase-labeled rabbit anti-human IgG Fcy fragment antibody (Jackson ImmunoResearch Laboratories, Inc.) was added thereto and incubated at room temperature for 1 hour. After washing three times, a TMBZ (3,3′,5,5′-tetramethylbenzidine, Kirkegaard & Perry Laboratories, Inc.) solution was added to each well. An equal amount of a reaction stopping solution (2 N H₂SO₄, FUJIFILM Wako Pure Chemical Corp.) was added to each well. The absorbance at 450 nm and 650 nm was read using a microplate reader (Thermo Fisher Scientific Inc.).
# [5] = biological target: human EphA4 fibronectin type III domain 1-MBP-His protein (human, UniProt P54764 326-439; P0AEX9 29-392 = MBP); experiment: as above
# Protocol: as §3
# [6] = biological target: T3, human EphA4 extracellular …; experiment: ELISA: human EphA4 extracellular domain-SEAP-His captured by anti-6-His antibody, detection with HRP anti-human IgG Fc
# Protocol: as §1
# [7] = biological target: T3, human EphA4 extracellular …; experiment: SPR (Biacore T200): human EphA4 extracellular domain-SEAP-His10 captured by anti-His antibody on CM5, antibody as analyte 1.6-100 nM, 1:1 fit
# Protocol: (§4) The binding affinity of the antibody A and the antibody B to human EphA4 was determined by surface plasmon resonance (SPR) using Biacore T200 (Cytiva). First, an anti-His antibody (Cytiva, 28-9950-56) was immobilized on sensor chip CM5. The immobilization was performed by the amine coupling method using N-hydroxysuccinimide (NHS) and N-ethyl-N′-(3-dimethylaminopropyl)carbodiimide hydrochloride (EDC). Ethanolamine was used in blocking (the sensor chip and the reagents for immobilizations were all manufactured by Cytiva). The antibody was diluted with a buffer solution for immobilization (10 mM sodium acetate, pH 4.5) into 3 µg/mL and immobilized on the sensor chip according to the protocol attached to Biacore T200. Human EphA4 extracellular domain-SEAP-His10 was diluted with a running buffer solution HBS-EP+ (Cytiva, BR-1001-69), injected onto a flow cell for 120 seconds, and captured (amount of the antibody captured: approximately 6 RU). Subsequently, the antibody A or the antibody B serially diluted in the range of 100, 50, 25, 12.5, 6.3, 3.2, 1.6, and 0 nM using HBS-EP+ was added to the sensor chip for 120 seconds. Binding reaction curves were sequentially observed at the time of the addition (association phase, 120 sec) and after the completion of the addition (dissociation phase, 600 sec). After the completion of each observation, the sensor chip was regenerated by the addition of 3 M MgCl₂ (60 sec). The obtained binding reaction curves were subjected to fitting analysis using 1:1 binding models and software BIA evaluation attached to the system to calculate the binding affinity (KD = kd / ka) to human EphA4. The experiment mentioned above was carried out three times, and an average value of each parameter was calculated.
# [8] = biological target: T3, human EphA4 extracellular …; experiment: SPR (Biacore T200), EphA4 ECD-SEAP-His10 captured by anti-His antibody, antibody as analyte, 1:1 model, mean of three runs
# Protocol: as §4, with “Binding reaction curves were sequentially observed at the time of the addition (association phase, 120 sec) and after the completion of the addition (dissociation phase, 600 sec). After the completion of each observation, the sensor chip was regenerated by the addition of 3 M MgCl₂ (60 sec). The obtained binding reaction curves were subjected to fitting analysis using 1:1 binding models and software BIA evaluation attached to the system to calculate the binding affinity (KD = kd / ka) to human EphA4.” left out
# [9] = biological target: T4, rat EphA4 extracellular domain-SEAP-His protein (rat, UniProt Q03137 20-547 (mouse entry)); experiment: ELISA: rat EphA4 extracellular domain-SEAP-His captured by anti-6-His antibody, detection with HRP anti-human IgG Fc
# T4 construct: not shown: SEAP and histidine tag
# Protocol: as §1
# [10] = biological target: T3, human EphA4 extracellular …; experiment: competition ELISA, captured human EphA4 ECD-SEAP-His; competitor biotinylated human Ephrin B3-Fc (2.3 nM)
# Protocol: as §2
# [11] = biological target: T5, human EphA4 extracellular domain-MBP-His protein (human); experiment: ELISA, domain-MBP-His captured by anti-6-His antibody, antibody 10 nM
# T5 construct: also called human EphA4 extracellular domain (ECD); ECD
# Protocol: as §3, with “An equal amount of a reaction stopping solution (2 N H₂SO₄, FUJIFILM Wako Pure Chemical Corp.) was added to each well.” left out
Binder,EC50 (read off the curve) [1] [nM],EC50 (read off the curve) [2] [nM],IC50 [3] [nM],binding result [4],binding result [5],EC50 (read off the curve) [6] [nM],koff [7] [s⁻¹],kon [7] [M⁻¹ s⁻¹],Kd [8] [nM],EC50 (read off the curve) [9] [nM],IC50 [10] [nM],binding result [11]
B1,~0.02,~0.02,3.9,no binding (tested: 10 nM),no binding (tested: 10 nM),~0.02,0.000251,537000,0.467,~0.02,3,binds
B2,~0.04,~0.04,4.8,no binding (tested: 10 nM),no binding (tested: 10 nM),~0.04,8.01e-05,512000,0.156,~0.04,4.1,binds
